Patent publication US20180215802A1 (MUSC FOUNDATION FOR RESEARCH DEVELOPMENT, published 2018)

B1: caspase-3 (activated, endogenous in lung fibroblasts and alveolar epithelial cells) (protein)
chain: SGISLDNSYKMDYPEMGLCIIINNKNFHKSTGMTSRSGTDVDAANLRETFRNLKYEVRNKNDLTREEIVELMRDVSKEDHSKRSSFVCVLLSHGEEGIIFGTNGPVDLKKITNFFRGDRCRSLTGKPKLFIIQACRGTELDCGIETDSGVDDDMACHKIPVEADFLYAYSTAPGYYSWRNSKDGSWFIQSLCAMLKQYADKLEFMHILTRVNRKVATEFESFSFDATFHAKKQIPCIVSMLTKELYFYH
B2: M10 peptide (TRPASFWETS), synthetic (peptide)
peptide: TRPASFWETS
notes: Synthetic peptide from GenScript; A 5,6-TAMRA conjugate (at the N-terminus) was used only for localisation; also called 2 kD C-terminal fragment (M10) of the MET receptor; last 10 amino acids of MET

Assays:
[1] = biological target: MET receptor tyrosine kinase, wild type, full length, P08581
Chain of MET receptor tyrosine kinase, wild type, full length, P08581 (P08581 whole entry, looked up): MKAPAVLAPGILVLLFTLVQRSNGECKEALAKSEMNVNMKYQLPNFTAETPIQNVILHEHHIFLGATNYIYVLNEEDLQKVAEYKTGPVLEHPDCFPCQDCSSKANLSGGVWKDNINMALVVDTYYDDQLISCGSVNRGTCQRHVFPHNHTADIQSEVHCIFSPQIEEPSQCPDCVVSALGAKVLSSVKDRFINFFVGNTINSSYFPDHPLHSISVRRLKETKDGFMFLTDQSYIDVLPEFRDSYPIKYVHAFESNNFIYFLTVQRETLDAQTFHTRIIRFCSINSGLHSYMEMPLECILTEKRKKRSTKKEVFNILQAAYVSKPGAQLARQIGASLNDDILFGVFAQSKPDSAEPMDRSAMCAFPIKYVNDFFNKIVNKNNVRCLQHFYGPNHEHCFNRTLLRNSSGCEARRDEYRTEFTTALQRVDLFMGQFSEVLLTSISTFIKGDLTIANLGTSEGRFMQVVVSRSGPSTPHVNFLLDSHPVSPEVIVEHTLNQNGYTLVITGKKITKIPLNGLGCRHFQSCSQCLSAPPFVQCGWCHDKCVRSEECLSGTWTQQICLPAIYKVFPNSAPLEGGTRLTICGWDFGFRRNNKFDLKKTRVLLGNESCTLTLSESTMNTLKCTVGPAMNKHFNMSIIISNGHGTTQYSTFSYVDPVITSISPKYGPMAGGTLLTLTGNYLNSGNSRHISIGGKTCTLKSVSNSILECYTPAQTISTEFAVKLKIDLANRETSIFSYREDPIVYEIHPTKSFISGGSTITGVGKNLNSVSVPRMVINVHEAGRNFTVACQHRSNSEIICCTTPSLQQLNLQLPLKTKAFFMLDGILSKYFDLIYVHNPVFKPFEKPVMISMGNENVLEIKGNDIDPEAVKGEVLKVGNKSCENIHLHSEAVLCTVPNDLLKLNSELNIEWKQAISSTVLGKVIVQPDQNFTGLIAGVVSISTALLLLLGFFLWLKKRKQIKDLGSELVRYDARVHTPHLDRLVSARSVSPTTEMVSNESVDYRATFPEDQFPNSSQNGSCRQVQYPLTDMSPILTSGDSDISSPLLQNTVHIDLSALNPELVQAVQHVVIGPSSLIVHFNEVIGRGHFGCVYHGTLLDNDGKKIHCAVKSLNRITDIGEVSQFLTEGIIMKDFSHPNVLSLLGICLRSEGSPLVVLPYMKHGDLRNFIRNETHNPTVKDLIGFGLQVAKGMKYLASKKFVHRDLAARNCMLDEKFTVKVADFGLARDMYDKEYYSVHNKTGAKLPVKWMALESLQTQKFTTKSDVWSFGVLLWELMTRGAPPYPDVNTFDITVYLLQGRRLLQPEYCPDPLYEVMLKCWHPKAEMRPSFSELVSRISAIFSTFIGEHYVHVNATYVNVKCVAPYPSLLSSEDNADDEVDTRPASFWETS

[2] = biological target: T1, Recombinant human Smad2 (NM 005901) with C-terminal MYC/DDK tag (human, UniProt Q15796 1-467); test: peptide-protein interaction assay: M10 and DDK-tagged Smad2 (1 µg each), capture with C12 antibody and protein G sepharose, anti-DDK immunoblot
T1 construct: Bought from OriGene; also called DDK-tagged recombinant Smad2; DDK-tagged Smad2; not shown: C-terminal MYC/DDK tag
T1 sequence (Q15796 whole entry): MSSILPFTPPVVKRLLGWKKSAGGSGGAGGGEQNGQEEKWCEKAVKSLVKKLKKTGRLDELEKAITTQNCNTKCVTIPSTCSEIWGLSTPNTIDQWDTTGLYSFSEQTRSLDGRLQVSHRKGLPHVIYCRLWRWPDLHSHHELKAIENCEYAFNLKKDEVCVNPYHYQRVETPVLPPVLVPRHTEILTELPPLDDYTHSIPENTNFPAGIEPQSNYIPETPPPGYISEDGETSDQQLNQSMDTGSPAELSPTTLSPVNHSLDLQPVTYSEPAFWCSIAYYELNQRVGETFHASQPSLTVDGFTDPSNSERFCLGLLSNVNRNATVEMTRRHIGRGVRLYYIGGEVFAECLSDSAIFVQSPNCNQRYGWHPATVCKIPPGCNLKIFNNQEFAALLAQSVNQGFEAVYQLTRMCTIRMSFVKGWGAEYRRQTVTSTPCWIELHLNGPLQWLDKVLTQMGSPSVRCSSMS

[3] = biological target: T2, Recombinant human Smad4 (NM 005359) with C-terminal MYC/DDK tag (human, UniProt Q13485 1-552); test: peptide-protein interaction assay: capture with C12 antibody and protein G sepharose, anti-DDK immunoblot
T2 construct: Bought from OriGene; also called DDK-tagged recombinant Smad4; DDK-tagged Smad4; not shown: C-terminal MYC/DDK tag
T2 sequence (looked up): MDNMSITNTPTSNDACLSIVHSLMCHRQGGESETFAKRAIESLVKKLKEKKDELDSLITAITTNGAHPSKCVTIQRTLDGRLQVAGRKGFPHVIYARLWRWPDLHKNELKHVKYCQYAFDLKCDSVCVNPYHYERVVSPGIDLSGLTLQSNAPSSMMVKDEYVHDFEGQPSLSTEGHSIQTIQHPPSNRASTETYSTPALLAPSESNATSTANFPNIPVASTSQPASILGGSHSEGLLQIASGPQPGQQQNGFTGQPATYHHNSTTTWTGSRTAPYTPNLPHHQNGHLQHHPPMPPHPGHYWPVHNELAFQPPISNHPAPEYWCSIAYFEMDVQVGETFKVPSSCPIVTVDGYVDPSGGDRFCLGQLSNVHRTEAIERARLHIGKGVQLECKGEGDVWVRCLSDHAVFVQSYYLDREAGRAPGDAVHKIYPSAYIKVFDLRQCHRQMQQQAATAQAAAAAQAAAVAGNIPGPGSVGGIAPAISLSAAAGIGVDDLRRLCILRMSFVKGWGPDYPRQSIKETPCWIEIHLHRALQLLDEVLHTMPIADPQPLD

| Binder | cleavage of the MET C-terminus (loss of C12 signal in Western blot) [1] | binding result [2] | binding result [3] |
| --- | --- | --- | --- |
| B1 | Cisplatin-induced caspase-3 cleavage was associated with a loss of detectable MET protein in Western blots with the C12 antibody |  |  |
| B2 |  | binds | no binding (tested: 1 µg each) |
